# Results: US20110262525A1, “METHODS OF TREATMENT” (SCHERING CORPORATION, priority 2006, published 2011)
# Legend:
# [1] = system: gastric cancer cell line SNU-16; assay: Cell-Titer Glo proliferation assay, SNU-16; type: cell-based, human; settings: 0.000256-100 nM antibody
# [2] = system: OS-33 xenograft (Osteosarcoma); assay: PPTP in vivo xenograft OS-33; settings: OS-33 (Osteosarcoma) xenograft, 0.5 mg per mouse ip twice weekly for four weeks
# Description: The PPTP includes a molecularly characterized in vitro panel of cell lines (n=27) and in vivo panel of xenografts (n=61) representing most of the common types of childhood solid tumors and childhood ALL (acute lymphoblastic leukemia).
# (§1) Stage 1 testing involved testing an agent across the entire PPTP panel of childhood cancer xenograft lines at its maximum tolerated dose (MTD) or at a dose selected based on PK/PD (pharmacokinetic/pharmacodynamic) studies using adult preclinical models.
# (§2) In vivo solid tumor testing: For each xenograft line, 10 mice bearing subcutaneous (SC) tumors initiated treatment when the tumors were between 0.2-0.5 cm^3 in volume. Two perpendicular tumor diameters were measured at once weekly intervals with digital vernier calipers. Assuming tumors to be spherical, volumes were calculated from the formula (π/6)×d3, where d represented the mean diameter.
# The antibody was provided to each testing site in coded vials for blinded testing according the PPTP's standard operating procedures.
# (§3) Median Group Response: Each individual mouse in each treatment group was assigned a response score (see Tables above) and a median score for the treatment group was calculated and then each treatment group was assigned an overall response according to the table below.
# (§4) Statistical Methods: Event-free survival (EFS) distributions of each treatment group were compared to the EFS distribution of the respective control group using the exact log rank test. P-values were 2-sided & were not adjusted for multiple comparisons given the exploratory nature of this study. P-values<0.05 were considered to be significant.
# [3] = system: OS-9 xenograft (Osteosarcoma); assay: PPTP in vivo xenograft OS-9; parameters: key to EFS activity notation (high, intermediate, indeterminate): high (!); intermediate (#); indeterminate (^); settings: OS-9 (Osteosarcoma) xenograft, 0.5 mg per mouse ip twice weekly for four weeks
# Procedure: (§5) The PPTP includes a molecularly characterized in vitro panel of cell lines (n=27) and in vivo panel of xenografts (n=61) representing most of the common types of childhood solid tumors and childhood ALL (acute lymphoblastic leukemia). LCF/HCA anti-IGF1R antibody was tested against the PPTP in vitro panel at concentrations ranging from 0.01 nM to 100 nM; and was tested against the PPTP in vivo panel at a dose of 0.5 mg per mouse administered twice weekly for four weeks via intraperitoneal injection. Three measures of antitumor activity were used: 1) response criteria modeled after the clinical setting; 2) treated-to-control (T/C) tumor volume at day 21; and 3) a time to event (4-fold increase in tumor volume) measure based on the median EFS of treated and control lines (intermediate activity required EFS (event-free survival) T/C>2, and high activity additionally required a net reduction in median tumor volume at the end of the experiment).
# as §1, §2
# (§6) Drug: LCF/HCA was dissolved in 20mM sodium acetate pH 5 buffer containing 150 mM sodium chloride, and administered intraperitoneally twice weekly for 4 consecutive weeks at a dose of 0.5 mg per animal. The antibody was provided to each testing site in coded vials for blinded testing according the PPTP's standard operating procedures.
# as §3, §4
# [4] = system: NB-SD xenograft (Neuroblastoma); assay: PPTP in vivo xenograft NB-SD; parameters: key to EFS activity notation (high, intermediate, indeterminate): high (!); intermediate (#); indeterminate (^)
# Procedure: as §5, §1, §2, §6, §3, §4
# [5] = system: ALL-8 xenograft (ALL T-cell); assay: PPTP in vivo leukemia xenograft ALL-8; settings: ALL-8 (ALL T-cell) xenograft; 0.5 mg per mouse ip twice weekly for four weeks
# Procedure: (§7) The PPTP includes a molecularly characterized in vitro panel of cell lines (n=27) and in vivo panel of xenografts (n=61) representing most of the common types of childhood solid tumors and childhood ALL (acute lymphoblastic leukemia). LCF/HCA anti-IGF1R antibody was tested against the PPTP in vitro panel at concentrations ranging from 0.01 nM to 100 nM; and was tested against the PPTP in vivo panel at a dose of 0.5 mg per mouse administered twice weekly for four weeks via intraperitoneal injection. […]
# (§8) In vivo acute lymphoblastic leukemia testing: For each xenograft line, 8 mice were inoculated with 3-5×10^6 mononuclear cells purified from the spleens of secondary recipient mice. Engraftment was monitored weekly by flow cytometry, and treatment was initiated when the proportion of human CD45+ cells in the peripheral blood reached 1%. The proportion of human CD45+ cells in the peripheral blood was monitored weekly throughout the course of treatment. […]
# (§9) Median Group Response: Each individual mouse in each treatment group was assigned a response score (see Tables above) and a median score for the treatment group was calculated and then each treatment group was assigned an overall response according to the table below. […]
# [6] = system: squamous cell carcinoma cell line SCC 25; assay: Cell-Titer Glo proliferation assay, SCC25; type: cell-based; settings: 0.000256-100 nM antibody, 96 hours
# Procedure: Cell proliferation was assayed using a Cell-Titer Glo assay (Promega Corp.; Madison, Wis.). A cell-titer glo assay generates a “glow” luminescent signal in the presence of ATP from viable cells, which can be detected with a plate reader luminometer or CCD imaging device.
# In this assay, squamous cell carcinoma cells, SCC9, SCC25 and SCC15, were trypsinized, counted and resuspended at 25,000 cells/ml in 10% HI-FBS RPMI containing NEAA, L-Glu, MEM Vitamins and PS. […] (2500 cells) were added to each well BD Falcon 96 well black, clear bottom TC treated plate. Cells were allowed to attach and spread overnight at 37° C. Then, 10% RPMI medium was replaced with […] 2% RPMI, containing the LCF/HCA antibody at the appropriate concentration, the following day. The anti-IGF1R antibody concentrations used in each experiment were 100 nM, 20 nM, 5 nM, 0.8 nM, 0.16 nM, 0.032 nM, 0.0064 nM, 0.00128 nM, and 0.000256 nM. All treatments were prepared in 2% RPMI at 20× concentration and serial diluted. Every test point was prepared in triplicate on separate assay plates. As mentioned above, cell proliferation was measured using the CellTiter-Glo Luminescent Cell Viability Assay (Promega) at 96 hours post treatment. Luminescence was detected on a Wallac 420 Plate Reader with stacker.
# [7] = system: ALL-3 xenograft (ALL B-precursor); assay: PPTP in vivo leukemia xenograft ALL-3; settings: ALL-3 (ALL B-precursor) xenograft; 0.5 mg per mouse ip twice weekly for four weeks
# Procedure: as §7, §8, §9
# [8] = system: BT-50 xenograft (Medulloblastoma); assay: PPTP in vivo xenograft BT-50; settings: BT-50 (Medulloblastoma) xenograft, 0.5 mg per mouse ip twice weekly for four weeks
# Procedure: as §5, §1, §2
# Drug: LCF/HCA was dissolved in 20mM sodium acetate pH 5 buffer containing 150 mM sodium chloride, and administered intraperitoneally twice weekly for 4 consecutive weeks at a dose of 0.5 mg per animal. […]
# as §9
# [9] = 0.5 mg per mouse ip twice weekly for four weeks
molecule,measurement,setting,value
"LCF/HCA: fully human anti-IGF1R antibody comprising the mature 19D12/15H12 light chain F (LCF) and mature heavy chain A (HCA) (antibody, V domains shown) VH: EVQLVQSGGGLVHPGGSLRLSCAASGFTFSSFAMHWVRQAPGKGLEWISVIDTRGATYYADSVKGRFTISRDNAKNSLYLQMNSLRAEDMAVYYCARLGNFYYGMDVWGQGTTVTVSS VL: EIVLTQVPDFQSVTPKEKVTITCRASQSIGSSLHWYQQKPDQSPKLLIKYASQSLSGVPSRFSGSGSGTDFTLTINSLEAEDAAAYYCHQSSRLPHTFGGGTKVEIKRT",proliferation of gastric cancer cell line,[1],inhibitied
same,EFS T/C,[2],0.9
same,Median Final RTV,[2],>4
same,Tumor Volume T/C,[2]; day 21,0.79
same,EFS T/C,[3],> 1.2
same,"EFS activity notation (high, intermediate, indeterminate)",[3],^
same,Median Final RTV,[3],0.4^
same,Tumor Volume T/C,[3]; day 21,0.31
same,EFS T/C,[4]; [9],> 1.8
same,"EFS activity notation (high, intermediate, indeterminate)",[4]; [9],^
same,Median Final RTV,[4]; [9],3.7^
same,Overall Group Response,[4]; [9],PD2 (1 < MS ≦ 3)
same,Tumor Volume T/C,"[4]; day 21, 0.5 mg per mouse ip twice weekly for four weeks",0.41
same,EFS T/C,[5],1.5
same,Median Final RTV,[5],>25
same,proliferation of squamous cell carcinoma cell line,[6],inhibited
same,EFS T/C,[7],0.4
same,Median Final RTV,[7],>25
same,Median Final RTV,[8],1.4
same,Overall Group Response,[8],PD2 (1 < MS ≦ 3)
same,Tumor Volume T/C,[8]; day 21,0.94
